We go through one molecule from publication doi:10.1101/2024.09.03.610921 (bioRxiv, 2024).

This assay has as its target recombinant human histone H3.1 (human, UniProt P68431 1-136). In words: pull-down.

B1: RAGE^124-341-His-FLAG (extracellular region of RAGE lacking the V domain) (domain or fragment)
chain: PEIVDSASELTAGVPNKVGTCVSEGSYPAGTLSWHLDGKPLVPNEKGVSVKEQTRRHPETGLFTLQSELMVTPARGGDPRPTFSCSFSPGLPRHRALRTAPIQPRVWEPVPLEEVQLVVEPEGGAVAPGGTVTLTCEVPAQPSPQIHWMKDGVPLPLPPSPVLILPEIGPQDQGTYSCVATHSSHGPQESRAVSISIIEPGEEGPTAGSVGGSGLGTL
Consider B1, for which the binding result is listed as “binds”.
